Bounds are passed on as bounds.

The target of experiment [1] is microtubules (MTs). The experiment in a line: TIRF-M dwell time on microtubules with EB1.
For experiment [2], the target named is Alexa-647-labeled KIF5AA (mouse) (UniProt P33175). Put plainly: dual color TIRF-M in vitro motility reconstitution.
For experiment [3], the target named is microtubules (MTs). The experiment in a line: TIRF-M dwell time of diffusing molecules on microtubules.

Alexa-647-labeled KIF5AA (mouse), sequence (P33175 whole entry): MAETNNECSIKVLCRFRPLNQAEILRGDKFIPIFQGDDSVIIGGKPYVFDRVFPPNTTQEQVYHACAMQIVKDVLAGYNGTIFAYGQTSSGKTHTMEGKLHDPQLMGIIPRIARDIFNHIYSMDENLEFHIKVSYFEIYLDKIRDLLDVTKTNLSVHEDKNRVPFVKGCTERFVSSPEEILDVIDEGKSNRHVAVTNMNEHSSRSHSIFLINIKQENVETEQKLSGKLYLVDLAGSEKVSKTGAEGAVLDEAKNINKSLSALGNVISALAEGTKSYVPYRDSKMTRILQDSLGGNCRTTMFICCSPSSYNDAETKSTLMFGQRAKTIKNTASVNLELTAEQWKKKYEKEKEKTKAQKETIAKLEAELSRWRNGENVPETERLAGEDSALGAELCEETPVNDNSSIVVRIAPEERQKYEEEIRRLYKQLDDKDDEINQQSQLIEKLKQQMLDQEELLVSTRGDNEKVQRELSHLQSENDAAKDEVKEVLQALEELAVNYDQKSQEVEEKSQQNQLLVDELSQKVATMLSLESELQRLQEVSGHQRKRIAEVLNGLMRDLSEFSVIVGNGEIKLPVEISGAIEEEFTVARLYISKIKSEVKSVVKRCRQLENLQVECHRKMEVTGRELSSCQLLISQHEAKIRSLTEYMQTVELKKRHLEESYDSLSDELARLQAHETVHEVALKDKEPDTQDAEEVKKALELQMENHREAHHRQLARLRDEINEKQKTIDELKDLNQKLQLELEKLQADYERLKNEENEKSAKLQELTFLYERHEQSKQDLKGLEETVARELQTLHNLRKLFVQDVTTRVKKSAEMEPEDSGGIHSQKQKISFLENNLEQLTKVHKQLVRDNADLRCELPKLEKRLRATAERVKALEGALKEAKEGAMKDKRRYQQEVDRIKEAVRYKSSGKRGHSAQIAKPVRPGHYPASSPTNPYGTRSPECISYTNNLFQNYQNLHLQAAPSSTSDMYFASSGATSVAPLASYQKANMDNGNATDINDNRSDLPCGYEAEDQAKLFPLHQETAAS

For “adenomatous polyposis coli (APC), full-length, Q61315 1-2845”, the dwell time with EB1 (fast and slow components) with microtubules (MTs) [1] is over 60 s. Further, the percent of processive KIF5AA-647 that transports APC–TMR in experiment [2] is 25%. The substance further yielded a dwell time, long diffusion events in the experiment with microtubules (MTs) [3] of 26.3 s.

Values taken from publication PMC9897468.
